Results on eight molecules are retold here after US20260250421A1 (BIOCYTOGEN PHARMACEUTICALS BEIJING, published 2026).

As usually defined, the Kd is the constant that tells how readily two partners part at equilibrium. In general, koff refers to the rate constant with which the complex falls apart. For orientation: kon means a measure of how fast the partners come together.

First the molecules themselves.
T1: His-tagged cynomolgus monkey PTK7 protein (cynomolgus monkey, UniProt A0A2K5VNI5 39-712)
T1 construct: Bought protein; also called cPTK7-His; ACRO Biosystems Cat# PT7-C52H3; not shown: His tag
T1 sequence: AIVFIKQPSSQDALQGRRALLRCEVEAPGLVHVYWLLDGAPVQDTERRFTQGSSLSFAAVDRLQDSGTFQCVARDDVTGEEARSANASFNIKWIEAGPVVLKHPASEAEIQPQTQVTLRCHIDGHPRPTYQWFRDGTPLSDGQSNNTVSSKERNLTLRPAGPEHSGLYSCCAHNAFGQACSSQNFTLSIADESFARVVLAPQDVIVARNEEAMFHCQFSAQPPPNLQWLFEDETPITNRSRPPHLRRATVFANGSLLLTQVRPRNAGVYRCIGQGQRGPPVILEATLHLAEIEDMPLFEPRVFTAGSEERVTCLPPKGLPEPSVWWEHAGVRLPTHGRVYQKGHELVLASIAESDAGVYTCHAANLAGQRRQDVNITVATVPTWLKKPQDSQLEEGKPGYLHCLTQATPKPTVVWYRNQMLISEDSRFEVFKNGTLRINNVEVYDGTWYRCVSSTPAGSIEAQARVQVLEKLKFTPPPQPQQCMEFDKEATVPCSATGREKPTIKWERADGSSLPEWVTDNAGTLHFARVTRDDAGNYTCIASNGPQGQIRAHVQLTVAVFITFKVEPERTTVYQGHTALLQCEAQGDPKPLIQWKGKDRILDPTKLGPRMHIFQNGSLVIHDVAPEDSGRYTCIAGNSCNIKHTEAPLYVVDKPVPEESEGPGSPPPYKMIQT

T2: His-tagged human PTK7 protein (human, UniProt Q13308 31-704)
T2 construct: Bought protein; also called hPTK7-His; not shown: His tag
T2 sequence: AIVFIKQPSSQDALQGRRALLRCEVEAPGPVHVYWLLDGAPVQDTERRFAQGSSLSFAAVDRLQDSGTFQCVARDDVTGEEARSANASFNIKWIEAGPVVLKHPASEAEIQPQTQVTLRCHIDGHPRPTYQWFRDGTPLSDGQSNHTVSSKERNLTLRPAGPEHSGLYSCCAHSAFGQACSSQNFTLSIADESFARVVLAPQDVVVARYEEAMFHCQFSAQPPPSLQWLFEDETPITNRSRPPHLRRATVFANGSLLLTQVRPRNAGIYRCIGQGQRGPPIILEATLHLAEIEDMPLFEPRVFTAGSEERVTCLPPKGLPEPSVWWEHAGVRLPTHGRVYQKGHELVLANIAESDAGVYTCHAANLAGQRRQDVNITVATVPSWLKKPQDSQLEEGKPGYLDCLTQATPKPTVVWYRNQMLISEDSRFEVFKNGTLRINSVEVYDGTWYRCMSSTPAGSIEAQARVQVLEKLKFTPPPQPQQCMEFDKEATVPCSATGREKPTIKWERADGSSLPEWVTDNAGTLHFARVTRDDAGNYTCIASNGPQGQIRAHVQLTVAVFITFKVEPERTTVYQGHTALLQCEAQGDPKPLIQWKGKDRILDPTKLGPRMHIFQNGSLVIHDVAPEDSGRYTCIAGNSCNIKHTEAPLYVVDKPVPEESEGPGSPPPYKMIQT

T3: His-tagged dog PTK7 protein (dog, UniProt Q13308 31-703 (human entry))
T3 construct: also called dPTK7-His
T3 chain: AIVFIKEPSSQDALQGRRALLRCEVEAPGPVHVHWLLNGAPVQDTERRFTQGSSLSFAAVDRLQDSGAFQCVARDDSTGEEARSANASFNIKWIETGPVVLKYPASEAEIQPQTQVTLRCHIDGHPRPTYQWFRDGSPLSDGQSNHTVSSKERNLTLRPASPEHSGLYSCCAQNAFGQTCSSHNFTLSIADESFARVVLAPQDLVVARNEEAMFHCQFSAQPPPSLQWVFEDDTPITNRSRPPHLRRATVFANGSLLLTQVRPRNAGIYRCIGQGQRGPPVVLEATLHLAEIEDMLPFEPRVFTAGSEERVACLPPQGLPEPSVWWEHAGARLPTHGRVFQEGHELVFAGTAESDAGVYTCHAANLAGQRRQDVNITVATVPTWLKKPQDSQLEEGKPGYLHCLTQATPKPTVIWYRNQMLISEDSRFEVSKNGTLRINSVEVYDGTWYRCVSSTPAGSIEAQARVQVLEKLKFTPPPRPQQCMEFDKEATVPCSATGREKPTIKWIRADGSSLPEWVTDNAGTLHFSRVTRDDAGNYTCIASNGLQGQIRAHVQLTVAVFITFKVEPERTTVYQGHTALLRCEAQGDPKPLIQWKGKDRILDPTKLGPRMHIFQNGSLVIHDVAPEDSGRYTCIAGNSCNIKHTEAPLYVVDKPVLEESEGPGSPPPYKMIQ

B1: 3C4 (antibody, V domains shown)
VH: QVQLEQSRAEVKKPGESLRISCKGSGYSFTSYWISWVRQMPGKGLEWMGRIDPSDSYTNYNPSFQGHVTISADKSISTAYLQWSSLKASDTAMYYCARRDGSYFDFDYWGQGTLVTVSS
VL: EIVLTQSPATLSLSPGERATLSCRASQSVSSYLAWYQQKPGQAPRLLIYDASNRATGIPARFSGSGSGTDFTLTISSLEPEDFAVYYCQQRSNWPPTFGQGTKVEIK
notes: also called anti-PTK7 antibody 3C4
B2: 3E6 (antibody, V domains shown)
VH: B1 VH with E5V, Q6E, R8G, K23R, N59K, N61S, S102D
VL: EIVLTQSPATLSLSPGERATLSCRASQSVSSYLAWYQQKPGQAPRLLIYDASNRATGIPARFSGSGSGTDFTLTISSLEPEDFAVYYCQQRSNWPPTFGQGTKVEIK
notes: also called anti-PTK7 antibody 3E6
B3: 1A11 (antibody, V domains shown)
VH: QVQLVQSGPGLVKPSETLSLTCTVSGGSINSYYWNWIRQPPGKGLEWIGYIYYSGSTNYNPSLKSRVTISVDTSKNQFSLKLSSVTAADTAVYYCARDPHDYIRGHFDLWGRGTLFTVSS
VL: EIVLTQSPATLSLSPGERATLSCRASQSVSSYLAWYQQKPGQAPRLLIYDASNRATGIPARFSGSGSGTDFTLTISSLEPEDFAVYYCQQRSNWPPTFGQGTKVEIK
notes: also called anti-PTK7 antibody 1A11
B4: 1F2 (antibody, V domains shown)
VH: QVQLVQSGGGLVQPGGSLRLSCAASGFTFSRYEMNWVRQAPGKGLEWVSYINSIGSAINYADSVKGRFTISRDNAKNSLYLQMRSLRAEDTAVYYCVREDNWNPGYWGQGTLVTVSS
VL: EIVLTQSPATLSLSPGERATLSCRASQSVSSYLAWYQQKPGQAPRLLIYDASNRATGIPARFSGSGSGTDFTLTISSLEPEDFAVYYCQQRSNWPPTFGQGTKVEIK
notes: also called anti-PTK7 antibody 1F2
B5: 1A7 (antibody, human IgG1, V domains shown)
VH: QVQLVESGGGVVQPGRSLRLSCAASGFTFSNYGMHWVRQAPGKGLEWVAVIYYDGSNKFYADSVKGRFTISRDNSKNTLYLQMSSLRAEDTAVYYCARDVAPPGSRAEYFHHWGQGTLVTVSS
VL: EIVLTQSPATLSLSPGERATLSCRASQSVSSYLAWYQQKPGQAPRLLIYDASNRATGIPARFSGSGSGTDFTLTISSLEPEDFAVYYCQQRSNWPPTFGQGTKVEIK
notes: also called anti-PTK7 antibody 1A7
B6: 2D11 (antibody, V domains shown)
VH: B5 VH with N31S, Y52F, F59Y, S84N, A92S, P102A, H111Q, H112N
VL: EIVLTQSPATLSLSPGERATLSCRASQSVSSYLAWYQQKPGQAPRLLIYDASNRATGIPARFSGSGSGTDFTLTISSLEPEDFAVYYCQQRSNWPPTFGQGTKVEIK
notes: also called anti-PTK7 antibody 2D11
B7: 2F5 (antibody, V domains shown)
VH: B5 VH with A23V, V50I, F59Y, S84N, P102A, P103A, F110L
VL: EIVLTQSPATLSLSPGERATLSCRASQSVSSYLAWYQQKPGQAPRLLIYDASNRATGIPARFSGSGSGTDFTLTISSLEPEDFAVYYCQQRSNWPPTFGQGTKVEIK
notes: also called anti-PTK7 antibody 2F5
B8: 2A5 (antibody, V domains shown)
VH: B5 VH with E6Q, Y52W, S56R, F59Y, S84N, P103A, H111Q, H112N
VL: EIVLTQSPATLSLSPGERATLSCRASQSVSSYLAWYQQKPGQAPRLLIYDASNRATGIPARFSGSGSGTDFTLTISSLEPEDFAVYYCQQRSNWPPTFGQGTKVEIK
notes: also called anti-PTK7 antibody 2A5

Changes are numbered by the printed parent chain.

In one test the target is T1, His-tagged cynomolgus monkey PTK7 …. The experiment in a line: SPR Biacore 8K, Ab on Protein A chip. The method, then: (§1) Purified anti-PTK7 antibodies were diluted to 1 μg/mL and then injected into the Biacore™ 8K biosensor at 10 μL/min for about 50 seconds to achieve a desired protein density (e.g., about 50 response units (RU)). The His-tagged PTK7 protein at a concentration of 200 nM or 0 nM was then injected at 30 μL/min for 180 seconds. Dissociation was monitored for 400 seconds. The chip was regenerated after the last injection of each titration with glycine (pH 2.0, 30 μL/min for 30 seconds).
(In general: In SPR one partner is held on a chip, and binding of the other changes the refractive index at the surface.)
B1: the Kd was determined as 23.2 nM, the koff came out at 0.00187 s⁻¹ and the kon was determined as 80600 M⁻¹ s⁻¹.

B2: the affinity, expressed as Kd, was 3.95 nM; the koff turned out to be 0.000481 s⁻¹; the kon was 122000 M⁻¹ s⁻¹.

As for B3, the Kd was 18.4 nM, the koff came out at 0.00131 s⁻¹ and the kon worked out at 71200 M⁻¹ s⁻¹.

Regarding B4, the Kd came to 30.2 nM, the koff was found to be 0.00949 s⁻¹ and the kon was 314000 M⁻¹ s⁻¹.

Take B5: the Kd was found to be 17.9 nM, the koff came to 0.000733 s⁻¹ and the kon is 41100 M⁻¹ s⁻¹.

On to B6, for which binding was put at a Kd of 3.08 nM, the koff was found to be 0.000177 s⁻¹ and the kon came out at 57400 M⁻¹ s⁻¹.

Molecule B7 registered a Kd of 35.2 nM, a koff of 0.00146 s⁻¹ and a kon of 41600 M⁻¹ s⁻¹.

Molecule B8 yielded a Kd of 10.8 nM, a koff of 0.000439 s⁻¹ and a kon of 40700 M⁻¹ s⁻¹.

For a further test, the target named is T2, His-tagged human PTK7 protein. Briefly: SPR Biacore 8K, Ab on Protein A chip. Here is the method:
as §1
In turn, B1 registered a Kd of 25.4 nM, a koff of 0.00237 s⁻¹ and a kon of 93200 M⁻¹ s⁻¹.

B2 came in with a Kd of 3.44 nM, a koff of 0.000454 s⁻¹ and a kon of 132000 M⁻¹ s⁻¹.

Regarding B3, the Kd stood at 41 nM, the koff came to 0.00318 s⁻¹ and the kon came out at 77600 M⁻¹ s⁻¹.

Regarding B4, the Kd is 69.8 nM, the koff worked out at 0.012 s⁻¹ and the kon was 172000 M⁻¹ s⁻¹.

Take B5: binding was put at a Kd of 40.9 nM, the koff stood at 0.00425 s⁻¹ and the kon worked out at 104000 M⁻¹ s⁻¹.

Molecule B6 showed a Kd of 8.11 nM, a koff of 0.000249 s⁻¹ and a kon of 30600 M⁻¹ s⁻¹.

B7 registered a Kd of 109 nM, a koff of 0.00388 s⁻¹ and a kon of 35600 M⁻¹ s⁻¹.

With B8, the Kd is 25.9 nM, the koff turned out to be 0.00281 s⁻¹ and the kon stood at 108000 M⁻¹ s⁻¹.

Another test concerns the target T3, His-tagged dog PTK7 protein. The experiment in a line: SPR Biacore 8K, Ab on Protein A chip. The method, then: as §1
B1: the Kd worked out at 8.48 nM, the koff was found to be 0.00399 s⁻¹ and the kon worked out at 471000 M⁻¹ s⁻¹.

As for B2, the affinity, expressed as Kd, was 11.6 nM; the off-rate (koff) came out at 0.00171 s⁻¹; the on-rate constant (kon) worked out at 147000 M⁻¹ s⁻¹.

As to B3, the affinity, expressed as Kd, was 14.5 nM; the koff amounted to 0.00123 s⁻¹; the kon is 84600 M⁻¹ s⁻¹.

In turn, B4 returned a Kd of 21.2 nM, a koff of 0.00927 s⁻¹ and a kon of 437000 M⁻¹ s⁻¹.

On to B5, for which the Kd is 2.3 nM, the koff was determined as 0.000133 s⁻¹ and the kon came out at 58000 M⁻¹ s⁻¹.

Molecule B6 returned a Kd of 0.898 nM, a koff of 5.47e-05 s⁻¹ and a kon of 60900 M⁻¹ s⁻¹.

Molecule B7 had a Kd of 11.1 nM, a koff of 0.000563 s⁻¹ and a kon of 50700 M⁻¹ s⁻¹.

In turn, B8 registered a Kd of 3.43 nM, a koff of 0.000167 s⁻¹ and a kon of 48600 M⁻¹ s⁻¹.
